The values below come from patent publication US20220298229A1 (ICHOR BIOLOGICS, published 2022).

The target in this assay is T1, Vesicular Stomatitis Virus Glycoprotein (VSV-G) (Vesicular Stomatitis Virus, UniProt P03522 17-511).
T1 construct: whole, on cells
Put plainly: flow cytometry, VSV-G-transfected 293T cells (FIG. 4C).

T1 sequence (P03522 17-511): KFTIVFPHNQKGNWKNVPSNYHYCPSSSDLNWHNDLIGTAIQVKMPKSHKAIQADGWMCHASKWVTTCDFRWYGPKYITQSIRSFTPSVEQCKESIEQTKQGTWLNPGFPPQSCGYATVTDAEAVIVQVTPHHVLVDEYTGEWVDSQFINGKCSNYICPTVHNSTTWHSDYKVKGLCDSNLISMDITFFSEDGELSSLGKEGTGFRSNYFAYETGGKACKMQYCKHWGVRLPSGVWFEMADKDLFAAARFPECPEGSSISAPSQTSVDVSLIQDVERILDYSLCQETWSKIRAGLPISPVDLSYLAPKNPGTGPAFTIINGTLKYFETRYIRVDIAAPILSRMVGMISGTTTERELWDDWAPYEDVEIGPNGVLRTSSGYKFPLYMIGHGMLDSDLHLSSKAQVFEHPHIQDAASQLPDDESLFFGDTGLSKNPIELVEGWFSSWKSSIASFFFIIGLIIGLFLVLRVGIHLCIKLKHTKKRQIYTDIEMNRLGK

B1: monoclonal antibody MIB22 (antibody, V domains shown)
VH: EVQLVQSGAELKKPGSSVKVSCKASGGTFVGYGVSWVRQVPGHGPEWMGGFSPISNTANYAERFQGRVTMIVDGSTSTAYMELRSLRSEDTAIYYCARSCDFWNAYYNNWFDPWGQGTLVTVSS
VL: AQSALTQPASVSGSPGQSITISCTGTSSDFADYNSVSWYQQHPGKAPKLLIFDVNDRPSGVSHRFSGSKSGNTASLTISGLQAEDESDYYCTSYTICNSYVFGTGTKVTVLG
notes: also called MIB22 IgG; first antibody
As for B1, the binding result is listed as “no binding (tested: 1 to 15 µg/ml)”.
